From patent US20030143656A1 (published 2003)
Numbering of substitutions follows the chain as printed. Values joined by “and” are separate entries in the source; they are usually repeats but may differ in a detail not shown here. Equal entries are not always repeated. Where no end group is shown, it is not given here. The star is where a group is joined. Biotin = O=C1N[C@H]2[C@H](CS[C@H]2CCCCC(=O)*)N1

How the values were obtained:
[1] = molecular target: T1, GST-PDK1 L155S (human, UniProt O15530 1-556); experiment: SPR over immobilised biotinylated PIFtide
T1 construct: range 1-556; not shown: N-terminal GST tag, pEBG2T vector
T1 sequence (looked up): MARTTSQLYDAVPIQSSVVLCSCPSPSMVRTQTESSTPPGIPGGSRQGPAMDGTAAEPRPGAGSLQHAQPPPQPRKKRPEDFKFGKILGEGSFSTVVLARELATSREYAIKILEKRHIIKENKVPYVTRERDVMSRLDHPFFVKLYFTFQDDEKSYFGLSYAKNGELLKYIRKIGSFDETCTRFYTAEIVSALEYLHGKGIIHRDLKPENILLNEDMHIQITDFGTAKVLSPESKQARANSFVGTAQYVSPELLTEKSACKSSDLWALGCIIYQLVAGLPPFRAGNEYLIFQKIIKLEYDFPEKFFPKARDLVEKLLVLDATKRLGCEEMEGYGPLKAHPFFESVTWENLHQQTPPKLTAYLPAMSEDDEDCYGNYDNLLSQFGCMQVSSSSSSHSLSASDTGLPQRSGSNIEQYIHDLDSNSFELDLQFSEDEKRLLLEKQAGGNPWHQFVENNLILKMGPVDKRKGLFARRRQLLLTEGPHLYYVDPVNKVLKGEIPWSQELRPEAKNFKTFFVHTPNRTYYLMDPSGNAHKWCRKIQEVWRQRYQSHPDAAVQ
Description: (§1) Duplicates of each condition are shown. Similar results were obtained in 3 to 5 separate experiments. (D) Surface Plasmon Resonance measurements were carried out in a BiaCore instrument as described in the Methods to measure the interaction of wild type and mutant GST-PDK1 preparations with the 24 residue synthetic peptide whose sequence encompasses the PDK1 binding site on PIF termed PIFtide [24: Example 2]. PIFtide was immobilised on a SA SensorChip and wild type (wt) or the indicated mutants of PDK1 were injected at a concentration of 40 nM. All data are single determinations from a representative experiment that was repeated at least 3 times with similar results. For clarity, the bulk, refractive index changes associated with the beginning and end 10 seconds of the injection have been removed.
(§2) Binding was analysed directly by surface plasmon resonance in an upgraded Bia-Lite™ system. PIFtide (comprising the last 24 residues of PRK2) was biotinylated though its C-terminal Cys and bound to an streptavidin-coated Sensor/Chip SA, as described previously. Wild type or mutant preparations of GST-PDK1 (10-400 nM) were injected in an intracellular type buffer, over the immobilised biotinylated PIFtide at a flow rate of 30 μl per min as described previously (James et al (1996) Biochem J 315, 709-713). Alternatively, the wild type or mutant preparations of GST-PDK1 (1 μM) were incubated with PIFtide or D978A-PIFtide (0.10 μM) and the mixture injected over the immobilised peptides. The decrease is steady state binding between wild type and mutant GST-PDK1 and peptide was used to determine the Kd of interaction between PDK1 and the peptide. The decrease in the maximal response at different concentrations of peptide was used to evaluate the relative affinities of both peptides for PDK1. The sensor chip surface was regenerated by pulses of 10 mM NaOH. […]

[2] = molecular target: T2, GST-PDK1 L155D (human, UniProt O15530 1-556); experiment: SPR over immobilised biotinylated PIFtide
T2 construct: range 1-556; also called L155D mutant of GST-PDK1; not shown: N-terminal GST tag, pEBG2T vector
T2 sequence (looked up): T1 sequence (looked up) with S155D
Description: as §1, §2

[3] = molecular target: T3, GST-PDK1 L155E (human, UniProt O15530 1-556); experiment: SPR over immobilised biotinylated PIFtide
T3 construct: range 1-556; not shown: N-terminal GST tag, pEBG2T vector
T3 sequence (looked up): T1 sequence (looked up) with S155E
Description: as §1, §2

[4] = molecular target: T4, His-PDK1 (human, UniProt O15530 52-556); experiment: SPR, immobilised biotinylated 24 residue peptide
T4 construct: range 52-556; Expressed in Sf9 cells; also called His-tagged PDK1; PDK1 (residues 52-556) with a hexahistidine tag; not shown: N-terminal hexahistidine (His) tag
T4 sequence (looked up): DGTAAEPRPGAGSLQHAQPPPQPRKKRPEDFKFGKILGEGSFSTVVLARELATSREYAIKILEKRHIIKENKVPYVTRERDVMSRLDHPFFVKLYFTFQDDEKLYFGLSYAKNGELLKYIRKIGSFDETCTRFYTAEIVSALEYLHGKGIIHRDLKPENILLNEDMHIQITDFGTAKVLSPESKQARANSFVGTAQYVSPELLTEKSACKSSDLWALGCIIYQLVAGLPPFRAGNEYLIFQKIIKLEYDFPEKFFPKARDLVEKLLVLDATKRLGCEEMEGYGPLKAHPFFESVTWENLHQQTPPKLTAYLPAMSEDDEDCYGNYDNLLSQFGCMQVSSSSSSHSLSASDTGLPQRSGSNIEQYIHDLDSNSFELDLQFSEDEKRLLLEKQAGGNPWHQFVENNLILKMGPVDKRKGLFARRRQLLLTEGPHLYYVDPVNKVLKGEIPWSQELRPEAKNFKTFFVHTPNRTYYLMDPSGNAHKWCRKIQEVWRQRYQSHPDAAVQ

binding result [1]: no binding (tested: injected at 40 nM) | binding result [2]: no binding (tested: injected at 40 nM) | binding result [3]: no binding (tested: injected at 40 nM) | Kd [4]: 800 nM and 1500 nM
B1: biotinylated PIFtide, immobilised (peptide)
peptide: REPRILSEEEQEMFRDFDYIADWC(Biotin)
notes: also called immobilised, biotinylated synthetic peptide termed PIFtide; immobilised and biotinylated 24 residue synthetic peptide
